Measured values reported in patent US20120148607A1 (ARGEN X N V, published 2012).
Changes are numbered by the printed parent chain. Read-outs that look alike come from different tables or passages of the source. One block for each binder: values may come before it.

How the values were obtained:
[1] = biological target: T1, recombinant dimeric c-Met (R&D systems, 358-MT/CF) (human, UniProt P08581 25-932); experiment: competition ELISA: recombinant dimeric c-Met (100 ng/ml) captured by coated mouse anti-His antibody; antibody dilutions 30 min, then 25 ng/ml N-terminally biotinylated HGF (the competitor); strep-HRP, TMB, 620 nm; percent competition against the controls
T1 construct: Bought product; also called Fc-Met; recombinant c-Met
T1 sequence (P08581 25-932 limits assumed): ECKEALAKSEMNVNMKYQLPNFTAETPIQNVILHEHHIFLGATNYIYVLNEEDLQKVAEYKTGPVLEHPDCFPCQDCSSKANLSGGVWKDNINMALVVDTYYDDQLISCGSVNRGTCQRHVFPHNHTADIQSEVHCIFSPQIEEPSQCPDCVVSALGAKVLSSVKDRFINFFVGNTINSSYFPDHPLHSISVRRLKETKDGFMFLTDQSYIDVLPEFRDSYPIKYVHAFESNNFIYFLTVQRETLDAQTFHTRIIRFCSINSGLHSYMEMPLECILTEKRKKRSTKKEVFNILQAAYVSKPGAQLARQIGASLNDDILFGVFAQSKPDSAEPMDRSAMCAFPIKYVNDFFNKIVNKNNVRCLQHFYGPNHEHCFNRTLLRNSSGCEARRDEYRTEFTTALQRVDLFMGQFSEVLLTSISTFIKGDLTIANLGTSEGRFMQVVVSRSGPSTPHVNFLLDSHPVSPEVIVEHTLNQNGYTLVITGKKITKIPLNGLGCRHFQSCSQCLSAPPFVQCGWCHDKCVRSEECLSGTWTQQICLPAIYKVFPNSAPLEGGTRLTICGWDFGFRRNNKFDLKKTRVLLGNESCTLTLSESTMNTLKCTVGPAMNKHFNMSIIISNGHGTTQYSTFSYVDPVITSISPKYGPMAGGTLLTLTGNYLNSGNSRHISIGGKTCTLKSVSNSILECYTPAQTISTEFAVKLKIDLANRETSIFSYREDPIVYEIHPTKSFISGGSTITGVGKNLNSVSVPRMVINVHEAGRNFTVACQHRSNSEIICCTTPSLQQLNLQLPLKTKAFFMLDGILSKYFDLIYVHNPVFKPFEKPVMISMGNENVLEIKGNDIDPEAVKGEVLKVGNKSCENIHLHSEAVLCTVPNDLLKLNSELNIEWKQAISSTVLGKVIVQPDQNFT
Protocol: (§1) Competition with N-terminally biotinylated HGF for binding to immobilized c-Met was performed using an ELISA-based competition assay. Five μg/ml mouse anti-His antibodies (Serotech) was immobilized on a maxisorb plate and, after blocking with 1% casein in PBS for 2 h, 100 ng/ml recombinant dimeric c-Met was added and incubated for 1 h at room temperature. After washing, dilutions of the antibodies were added and allowed to bind to the captured c-Met for 30 minutes, before 25 ng/ml N-terminally biotinylated HGF (R&D systems, 294-HGN/CF) was added. Biotinylated HGF was incubated at room temperature for 1 h before washing. Horseradish-conjugated streptavidin (strep-HRP) was added and incubated for an additional hour. TMB was added and the plate read at 620 nm. An isotype control (hIgG1λ) was included as a control as well as murine 5D5 antibody. Competition was expressed as percentage competition as compared to the controls (strep-HRP only or hIgG1λ) and plotted against the concentration of antibodies. An IC₅₀ was calculated using GraphPad Prism (Table 10). Antibodies 13E6 and 20A11 only displaced HGF partially (about 50%), which may be related to the epitope these two mAbs recognize on the c-Met.

c-Met SEMA ectodomain [2] = biological target: T2, c-Met SEMA ectodomain (human, UniProt P08581 27-515); experiment: ELISA on immobilised c-Met ectodomains
T2 construct: domain: SEMA; also called SEMA domain
T2 sequence (P08581 27-515): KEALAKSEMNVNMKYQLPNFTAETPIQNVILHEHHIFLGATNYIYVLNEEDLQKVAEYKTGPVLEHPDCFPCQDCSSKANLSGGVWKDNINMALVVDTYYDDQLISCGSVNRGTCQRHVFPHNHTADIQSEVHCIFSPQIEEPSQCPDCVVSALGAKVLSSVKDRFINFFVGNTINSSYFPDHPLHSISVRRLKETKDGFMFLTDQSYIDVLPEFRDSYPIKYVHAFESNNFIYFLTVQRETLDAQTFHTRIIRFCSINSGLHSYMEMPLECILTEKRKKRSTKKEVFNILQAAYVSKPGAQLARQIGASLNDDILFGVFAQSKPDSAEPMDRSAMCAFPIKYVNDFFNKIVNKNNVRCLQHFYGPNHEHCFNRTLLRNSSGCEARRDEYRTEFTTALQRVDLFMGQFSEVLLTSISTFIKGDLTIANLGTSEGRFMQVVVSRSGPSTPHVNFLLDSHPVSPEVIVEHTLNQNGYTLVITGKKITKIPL

[3] = biological target: T3, c-Met SEMA-PSI ectodomain (human, UniProt P08581 25-562, limits assumed); experiment: ELISA on immobilised c-Met ectodomains
T3 construct: domain: SEMA-PSI
T3 sequence (P08581 25-562 limits assumed): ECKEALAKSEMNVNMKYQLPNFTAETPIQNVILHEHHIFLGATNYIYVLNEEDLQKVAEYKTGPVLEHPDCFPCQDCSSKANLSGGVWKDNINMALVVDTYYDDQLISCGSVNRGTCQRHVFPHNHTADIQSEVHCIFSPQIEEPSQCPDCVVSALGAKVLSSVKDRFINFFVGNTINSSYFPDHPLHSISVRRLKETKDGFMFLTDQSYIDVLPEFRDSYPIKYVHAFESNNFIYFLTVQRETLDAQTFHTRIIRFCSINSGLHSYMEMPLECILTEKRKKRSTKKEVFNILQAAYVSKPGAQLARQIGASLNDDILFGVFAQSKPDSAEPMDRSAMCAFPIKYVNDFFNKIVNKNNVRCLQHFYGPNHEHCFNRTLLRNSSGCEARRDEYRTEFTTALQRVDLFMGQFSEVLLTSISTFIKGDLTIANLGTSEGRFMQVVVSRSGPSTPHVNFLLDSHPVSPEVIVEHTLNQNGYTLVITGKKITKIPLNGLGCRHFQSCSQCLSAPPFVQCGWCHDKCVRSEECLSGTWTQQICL

[4] = biological target: T4, c-Met SEMA-PSI-IPT1-2 ectodomain (human, UniProt P08581 25-741, limits assumed); experiment: ELISA on immobilised c-Met ectodomains
T4 construct: domain: SEMA-PSI-IPT1-2; also called IPT1-2 (as recognised domain)
T4 sequence (P08581 25-741 limits assumed): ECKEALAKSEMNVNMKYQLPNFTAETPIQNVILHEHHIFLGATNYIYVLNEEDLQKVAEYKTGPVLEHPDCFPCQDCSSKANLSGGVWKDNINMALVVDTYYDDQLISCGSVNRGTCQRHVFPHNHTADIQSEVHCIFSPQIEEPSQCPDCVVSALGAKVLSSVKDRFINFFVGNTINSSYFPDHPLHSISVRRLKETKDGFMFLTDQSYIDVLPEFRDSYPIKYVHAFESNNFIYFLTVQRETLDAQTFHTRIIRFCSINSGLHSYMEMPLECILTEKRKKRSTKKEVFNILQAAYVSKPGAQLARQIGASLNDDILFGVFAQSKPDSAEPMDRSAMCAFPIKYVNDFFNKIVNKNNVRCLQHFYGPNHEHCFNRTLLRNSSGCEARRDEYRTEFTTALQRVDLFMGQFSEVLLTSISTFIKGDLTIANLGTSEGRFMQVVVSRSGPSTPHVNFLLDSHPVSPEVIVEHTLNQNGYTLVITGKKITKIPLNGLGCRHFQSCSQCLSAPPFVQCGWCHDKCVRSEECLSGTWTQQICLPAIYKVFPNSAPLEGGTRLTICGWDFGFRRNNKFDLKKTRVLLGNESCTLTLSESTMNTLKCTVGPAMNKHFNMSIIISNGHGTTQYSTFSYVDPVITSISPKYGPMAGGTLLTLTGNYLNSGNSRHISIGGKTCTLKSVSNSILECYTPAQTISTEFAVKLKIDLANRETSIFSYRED

c-Met IPT3-4 ectodomain = biological target: T5, c-Met IPT3-4 ectodomain (human, UniProt P08581 742-932, limits assumed); experiment: ELISA on immobilised c-Met ectodomains
T5 construct: domain: IPT3-4
T5 sequence (P08581 742-932 limits assumed): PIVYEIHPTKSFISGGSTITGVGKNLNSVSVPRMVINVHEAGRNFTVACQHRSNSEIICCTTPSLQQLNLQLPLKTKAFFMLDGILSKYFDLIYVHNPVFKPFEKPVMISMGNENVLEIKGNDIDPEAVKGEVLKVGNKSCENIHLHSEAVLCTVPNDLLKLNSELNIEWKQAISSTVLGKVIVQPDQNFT

[5] = biological target: T6, Decoy c-Met (extracellular domain of human c-Met) (human, UniProt P08581 25-932); experiment: binding ELISA, human c-Met (Decoy)
T6 construct: extracellular domain; also called Decoy Met; monomeric Decoy Met
T6 sequence (P08581 25-932): as the sequence (P08581 25-932 limits assumed) above

[6] = biological target: T7, Rhesus (Maccaca mulatta, US20090191580-5) c-Met ECD (Rhesus (Maccaca mulatta)); experiment: binding ELISA, Rhesus c-Met ECD immobilised (1 µg/ml)
T7 construct: extracellular domain; also called Rhesus c-Met ECD; Rhesus ECD
Protocol: Cross reactivity to Rhesus (Maccaca mulatta, US20090191580_{—}5) c-Met ECD and mouse c-Met (R&D systems cat no: 527-ME) was performed in a binding ELISA. Rhesus ECD was immobilized in PBS (1 μg/ml) on a 96-well maxisorb plate and incubated at 4° C. over night. After blocking with 1% casein in PBS, the antibodies in dilutions starting with 10 μg/ml were added and allowed to bind for 1 h at room temperature. The plate was washed and a goat anti-human Fcγ antibody (Jackson) was added and incubated for 1 h at room temperature. After washing, TMB was added and the plate read at 620 nm

[7] = biological target: T6, Decoy c-Met (extracellular domain of …); experiment: ELISA: c-Met ectodomain coated at 1 µg/ml on maxisorb plate; mAb in three-fold dilutions from 1 µg/ml, 1 h RT; HRP-conjugated Protein A, TMB, OD 450
c-Met SEMA ectodomain [8] = biological target: T2, c-Met SEMA ectodomain; experiment: as above
[9] = biological target: T3, c-Met SEMA-PSI ectodomain; experiment: as above
[10] = biological target: T1, recombinant dimeric c-Met (R&D systems, …); experiment: competition ELISA, mAb against 25 ng/ml biotinylated HGF on captured dimeric c-Met
Protocol: as §1

[11] = biological target: T6, Decoy c-Met (extracellular domain of …); experiment: SPR: mAb (0.5 µg/ml) kept 1 h at the given temperature, run over a CM-5 chip coupled with 15,000-17,000 RU Decoy c-Met; slope between 100 and 130 s at 30 µl/min in percent of the sample kept at 4 °C
[12] = biological target: T6, Decoy c-Met (extracellular domain of …); experiment: as above; remark: listed apart in the source
[13] = biological target: T8, human c-Met ECD (aa 25-932) with His tag (human, UniProt P08581 25-932); experiment: ELISA: 200 ng of the c-Met ECD protein coated on maxisorb plates; mAb dilutions 1 h RT; HRP-conjugated goat anti-human antibody, TMB, OD 620 nm
T8 construct: range 25-932; Soluble protein from HEK293 cells; also called human c-Met (WT); not shown: His tag
T8 sequence (P08581 25-932 limits assumed): as above

B3: 40B8 mAb (antibody, V domains shown)
VH: EVQLVQPGAELRNPGASVKVSCKASGYTFTNYVIDWVRQAPGQGLEWMGRIDPENGGTRYAQKFQGRVTFTADTSTSTAYVELSNLRSEDTAVYYCARLEDYELAYDYWGQGTQVTVSS
VL: DIVMTQTPSSVTASAGEKVTINCKSSQSVLLSSNQKNYLAWYQQRLGQSPRLLIYWASTRESGVPDRFSGSGSTTDFTLTISSFQPEDAAVYYCQQGVSFPLTFGQGTKVELK
EC50 [5]: 0.14 nM | EC50 [6]: 0.13 nM | EC50 (read off the curve) [7]: ~0.03 µg/mL | binding result (c-Met SEMA ectodomain [8]): no binding (tested: 1000 ng/ml) | binding result [9]: no binding (tested: 1000 ng/ml) | IC50 (read off the curve) [1]: ~0.08 nM

B4: 20F1 mAb (antibody, V domains shown)
VH: EVQVQESGPGLVKPSQTLSLTCTVSGGSMTGNYYAWSWIRQPPGKGLEWMGVIAYDGSTYYSPSLKSRTSISRDTSKNQFSLQLSSVSPEDTAVYYCARGPGWYSGSRNDYWGQGTQVTVSS
VL: QSALTQPPSVSGSPGKTVTISCTGTNSDVGYGNYVSWYQQLPGMAPKLLIYDVNRRASGIADRFSGSKSGNTASLTISGLQSEDEGDYHCASYRSANNAVFGGGTHLFVL
IC50 [10]: 0.36 nM

B5: 38H10 mAb (antibody, V domains shown)
VH: EVQLVQPGVELRNPGASVKVSCKASGYIFTMNSIDWVRQAPGQGLEWMGRIDPEDGGTKYAQKFQGRVTFTADTSTSTAYVELNSLRSEDTAVYYCARVDDYYLGYDYWGQGTQVTVSS
VL: EIVMTQSPSSVTASAGEKVTINCKSSQSVLWRSNQKNYLAWYQQRLGQSPRLLISWASIRESGVPDRFSGSGSTTDFTLTISSFQPEDAAVYYCQQGYSFPYTFGSGTRLEIK
EC50 [5]: 0.19 nM | EC50 [6]: 0.17 nM | IC50 (read off the curve) [1]: ~0.03 nM

B6: 56F3 (antibody, V domains shown)
VH: B5 VH with V9A, L11V, R12K, N13K, D55E, F70M, V81M, N84S, E89D
VL: DIVMTQSPDSLAASLGERVTINCKSSQSVLFSSNQKNYLAWYQQRPGQSPKLLIYWASIRESGVPDRFSGSGSGTDFTLTISSLQAEDVAVYYCQQGYSFPYSFGSGTRLEIK
notes: also called germlined variant of 48A2
binding result [11]: binds

B7: 53E3 (antibody, V domains shown)
VH: QVQLQESGPGLVKPSQTLSLTCTVSGGSITTNYYYWSWIRQSPGKGLEWIGVIAYEGSTDYSPSLKSRVTISRDTSKNQFSLQLSSVTAEDTAVYYCARDVRVIATGWATANALDAWGQGTLVTVSS
VL: QSVLTQPPSVSGSPGQTVTISCAGTSSDVGYGNYVSWYQQLPGTAPKLMIFAVSYRASGIPDRFSGSKSGNTASLTISGLQSEDEADYYCASYRSSNNAAVFGGGTKLTVL
notes: also called germlined variant of 36C4
binding result [12]: binds

B8: 55A12-54E (antibody, V domains shown)
VH: B7 VH with Q5V, T30S, Q83K
VL: B7 VL with V3A, T17S, L41P, M49L, I60V, S82A
notes: as for B7
binding result [12]: binds

B11: 12G4 mAb (antibody, V domains shown)
VH: QLQLVESGGGMAQPGGSLKLSCAASGFTFDDYAMTWVRQAPGKGLEWLSTISWNDINTYYAESMKDRFTISRDNAKNTLYLQMNSLESEDTAVYYCAKRRDNYYGTSGEYDYWGQGTQVTVSS
VL: QSALTQPPSVSGTLGKTVTISCAGTSSDIGNYNYVSWYQQLPGTAPKLLIYEVNKRPSGIPDRFSGSKSGNTASLSISGLQSEDEADYYCASYRSSNNVVFGGGTKLTVL
EC50 [5]: 0.42 nM | EC50 [6]: 0.34 nM | IC50 [10]: 0.26 nM

B12: 34H7 mAb (antibody, V domains shown)
VH: ELQLVESGGALVQPGGSLRLSCVESGFTFSSYAMSWVRQAPGKGLEWVSGIYKGGGPKYANSVKGRFTISRDNAKNTLYLQMNSLKPEDTAVYYCAKSGYGSSLGDFGSWGQGTQVTVSS
VL: QAGLTQLSSMSGSPGQTVTITCTGSSSNIGGGYYLSWYQHLPGTAPKLLIYSNINRASGVPDRFSGSTSGISASLTITGLQAEDEADYYCSSWDDSVSGPVFGGGTSLTVL
IC50 (read off the curve) [1]: ~0.2 nM

Other lines, results leading:

IC50 (read off the curve) [1]: ~0.8 nM
B1: murine 5D5 antibody (antibody, V domains shown)
VH: QVQLQQSGPELVRPGASVKMSCRASGYTFTSYWLHWVKQRPGQGLEWIGMIDPSNSDTRFNPNFKDKATLNVDRSSNTAYMLLSSLTSADSAVYYCATYGSYVSPLDYWGQGTSVTVSS
VL: DIMMSQSPSSLTVSVGEKVTVSCKSSQSLLYTSSQKNYLAWYQQKPGQSPKLLIYWASTRESGVPDRFTGSGSGTDFTLTITSVKADDLAVYYCQQYYAYPWTFGGGTKLEIK

binding result (c-Met SEMA ectodomain [2]): no binding (tested: 1 µg/ml) | binding result [3]: no binding (tested: 1 µg/ml) | binding result [4]: no binding (tested: 1 µg/ml) | binding result (c-Met IPT3-4 ectodomain): no binding (tested: 1 µg/ml) | EC50 [5]: 4.3 nM | EC50 [6]: 3.4 nM
B2: 20A11 mAb (antibody, V domains shown)
VH: QVQLVESGGGLVQPGGSLRLSCAASGFTFDDYAMSWVRQAPGKGLEWVSAISWNGSSTYYAESMKGRFTISRDNAKNTLYLQMNSLKSEDTAVYYCAKDLIGSHDYWGQGTQVTVSS
VL: QAVLTQPPSVSGTLGKTLTISCAGTSSDVGYGNYVSWYQQLPGTAPKLLIYAVSTRASGIPDRFSGSKSGNTASLTISGLQSEDEADYYCASYRSSNNYAFGAGTKLTVL

binding result [12]: binds
B9: 53A11 (antibody, V domains shown)
VH: B7 VH with E56D, G57A
VL: B7 VL with L41P, S74F
notes: as for B7

binding result (c-Met SEMA ectodomain [2]): no binding (tested: 1 µg/ml) | binding result [3]: no binding (tested: 1 µg/ml) | binding result [4]: no binding (tested: 1 µg/ml) | binding result (c-Met IPT3-4 ectodomain): no binding (tested: 1 µg/ml) | EC50 [5]: 0.19 nM | EC50 [6]: 0.19 nM | EC50 (read off the curve) [13]: ~1 nM
B10: 13E6 mAb (antibody, V domains shown)
VH: QVQLQESGGDLVQPGGSLRLSCAASGFTFDDYVMNWVRQAPGKGLEWISAINWNGGSTYYAESMKGRFTISRDNAKNTLYLQMYSLQSDDTAVYYCVKDTVVSGNGYWGQGTQVTVSS
VL: B11 VL with A3V, N31D, E52D, P57A, S96R, N98D, V99Y, V100A
